Experiment [1] concerns the target HT29 protein (unidentified protease-sensitive cell surface protein on HT29 colon carcinoma cells that the RPM peptide binds). Kind of experiment: competition of non-specific peptide with RPM phage on HT29 cells, real time PCR; 100% means no competition. For orientation: In qPCR the cycle at which signal appears reflects the starting amount.
Experiment [2] has the same target. The experiment in a line: competition with RPM displaying phage on HT29 cells, real time PCR.
For experiment [3] the target is unchanged. The experiment in a line: competition of synthetic peptide with RPM phage on HT29 cells, real time PCR; percent of phage bound without competitor.
Experiment [4] has the same target. The experiment in a line: competition with RPM phage on HT29 cells, real time PCR.

Bridge positions count the residues as written; N and C are the ends. Ends that are not written are not given here.

As for CKHLGPQLC (disulfide 1-9 (inferred)) [non-specific peptide … (SEQ ID NO: 135), synthetic, oxidized to form a disulfide bond], the percent of RPM phage binding remaining in experiment [1] was determined as 100%.
On to CPIEDRPAC [RPA peptide (RPM peptide with the methionine mutated to alanine)], for which, in experiment [2], the EC50 (as a rule, the concentration giving half of the maximal effect) turned out to be 545 µM and the fold shift of the EC50 of competition against the RPM peptide was found to be 100 fold.
In turn, CPIEDRPMC (disulfide 1-9 (inferred)) [RPM peptide … (SEQ ID NO: 134), synthetic, oxidized to form a disulfide bond] returned an EC50 in experiment [2] of 5 µM. The percent of RPM phage binding remaining in experiment [3] was less than 4%.
On to CPIEDAPMC [APM peptide (RPM peptide with the arginine mutated to alanine)], for which, in experiment [2], the EC50 was found to be 690 µM and the fold shift of the EC50 of competition against the RPM peptide stood at 100 fold.
As for CPIRPMEDC [RPM middle peptide … (SEQ ID NO: 137)], in experiment [4], the fold less potent than RPM in competition is more than 100 fold.

The values are drawn from patent US7452965.
